Reference: patent publication US20190241669A1 (published 2019)

Legend:
cynomolgus monkey BCMA = molecular target: T1, cynomolgus monkey BCMA (cynomolgus monkey, UniProt A0A2K5UD97 1-53); experiment: SPR, IgG on chip, cyBCMA analyte
T1 construct: Soluble analyte in SPR; construct not described; also called cyBCMA; Cyno BCMA

Human BCMA (human) = Human BCMA (human) (UniProt Q02223); experiment: SPR, IgG on chip, huBCMA analyte

T1 sequence (A0A2K5UD97 entry or part of it): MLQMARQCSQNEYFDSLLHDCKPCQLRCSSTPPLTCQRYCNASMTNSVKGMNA

Binder | Kd (cynomolgus monkey BCMA) | koff (cynomolgus monkey BCMA) | kon (cynomolgus monkey BCMA) | Kd (Human BCMA (human)) | koff (Human BCMA (human)) | kon (Human BCMA (human))
COMBO_Rd4_0.6nM_C05 (antibody, V domains shown, IgG) VH: EVQLLESGGGLVQPGGSLRLSCAASGFTFSSYAMNWVRQAPGKGLEWVSAIGGSGGSTYYADSVKGRFTISRDNSKNTLYLQMNSLRAEDTAVYYCARYWPMSLWGQGTLVTVSS VL: EIVLTQSPGTLSLSPGERATLSCRASQSVSSTYLAWYQQKPGQAPRLLMYDASIRATGIPDRFSGSGSGTDFTLTISRLEPEDFAVYYCQQYMSWPLTFGQGTKVEIK | 0.886 nM | 0.00172 s⁻¹ | 1.94e+06 M⁻¹ s⁻¹ | 0.115 nM | 0.000497 s⁻¹ | 4.32e+06 M⁻¹ s⁻¹
COMBO_Rd4_0.6nM_C19 (antibody, V domains shown, IgG) VH: EVQLLESGGGLVQPGGSLRLSCAASGFTFSSYPMSWVRQAPGKGLEWVSAIGGSGGSLPYADSVKGRFTISRDNSKNTLYLQMNSLRAEDTAVYYCARYWPMDSWGQGTLVTVSS VL: EIVLTQSPGTLSLSPGERATLSCRASQSVSAVYLAWYQQKPGQAPRLLMYDASIRATGIPDRFSGSGSGTDFTLTISRLEPEDFAVYYCQQYRAWPLTFGQGTKVEIK | 0.336 nM | 0.000979 s⁻¹ | 2.92e+06 M⁻¹ s⁻¹ | 0.02 nM | 0.000155 s⁻¹ | 7.86e+06 M⁻¹ s⁻¹
COMBO_Rd4_0.6nM_C20 (antibody, V domains shown, IgG) VH: EVQLLESGGGLVQPGGSLRLSCAASGFTFSSYPMSWVRQAPGKGLEWVSAIGGSGGSLPYADSVKGRFTISRDNSKNTLYLQMNSLRAEDTAVYYCARYWPMDSWGQGTLVTVSS VL: EIVLTQSPGTLSLSPGERATLSCRASQSVSYLYLAWYQQKPGQAPRLLMYDASIRATGIPDRFSGSGSGTDFTLTISRLEPEDFAVYYCQQYMEWPLTFGQGTKVEIK | 0.092 nM | 0.000284 s⁻¹ | 3.09e+06 M⁻¹ s⁻¹ | 0.019 nM | 0.000146 s⁻¹ | 7.65e+06 M⁻¹ s⁻¹
COMBO_Rd4_6nM_C11 (antibody, V domains shown, IgG) VH: EVQLLESGGGLVQPGGSLRLSCAASGFTFSSYPMSWVRQAPGKGLEWVSAIGGSGGSLGYADSVKGRFTISRDNSKNTLYLQMNSLRAEDTAVYYCARYWPMDSWGQGTLVTVSS VL: EIVLTQSPGTLSLSPGERATLSCRASQSVSPLYLAWYQQKPGQAPRLLMYDASIRATGIPDRFSGSGSGTDFTLTISRLEPEDFAVYYCQQYKAWPLTFGQGTKVEIK | 0.156 nM | 0.000412 s⁻¹ | 2.64e+06 M⁻¹ s⁻¹ | 0.018 nM | 0.000124 s⁻¹ | 6.74e+06 M⁻¹ s⁻¹
COMBO_Rd4_6nM_C09 (antibody, V domains shown, IgG) VH: EVQLLESGGGLVQPGGSLRLSCAASGFTFSSYPMSWVRQAPGKGLEWVSAIFASGGSTYYADSVKGRFTISRDNSKNTLYLQMNSLRAEDTAVYYCARYWPMDSWGQGTLVTVSS VL: EIVLTQSPGTLSLSPGERATLSCRASQSVSAQYLAWYQQKPGQAPRLLMYDASIRATGIPDRFSGSGSGTDFTLTISRLEPEDFAVYYCQQYQAWPLTFGQGTKVEIK | 0.134 nM | 0.000318 s⁻¹ | 2.37e+06 M⁻¹ s⁻¹ | 0.016 nM | 0.000143 s⁻¹ | 8.85e+06 M⁻¹ s⁻¹
COMBO_Rd4_6nM_C02 (antibody, V domains shown, IgG) VH: EVQLLESGGGLVQPGGSLRLSCAASGFTFSSYAMNWVRQAPGKGLEWVSAISDSGGFVYYADSVKGRFTISRDNSKNTLYLQMNSLRAEDTAVYYCARYWPMDSWGQGTLVTVSS VL: EIVLTQSPGTLSLSPGERATLSCRASQSVSSSYLAWYQQKPGQAPRLLMYDASIRATGIPDRFSGSGSGTDFTLTISRLEPEDFAVYYCQQYEFWPLTFGQGTKVEIK | 1.71 nM | 0.00136 s⁻¹ | 795000 M⁻¹ s⁻¹ | 0.422 nM | 0.000443 s⁻¹ | 1.05e+06 M⁻¹ s⁻¹
COMBO_Rd4_6nM_C21 (antibody, V domains shown, IgG) VH: EVQLLESGGGLVQPGGSLRLSCAASGFTFSSYPMSWVRQAPGKGLEWVSAIGGSGGSLPYADSVKGRFTISRDNSKNTLYLQMNSLRAEDTAVYYCARYWPMDSWGQGTLVTVSS VL: EIVLTQSPGTLSLSPGERATLSCRASQSVSAAYLAWYQQKPGQAPRLLMYDASIRATGIPDRFSGSGSGTDFTLTISRLEPEDFAVYYCQQYMCWPLTFGQGTKVEIK | 0.078 nM | 0.000248 s⁻¹ | 3.17e+06 M⁻¹ s⁻¹ | 0.006 nM | 7.34e-05 s⁻¹ | 1.17e+07 M⁻¹ s⁻¹
COMBO_Rd4_6nM_C08 (antibody, V domains shown, IgG) VH: EVQLLESGGGLVQPGGSLRLSCAASGFTFSSYPMSWVRQAPGKGLEWVSAIGGSGTWTYYADSVKGRFTISRDNSKNTLYLQMNSLRAEDTAVYYCARYWPMDSWGQGTLVTVSS VL: EIVLTQSPGTLSLSPGERATLSCRASQSVSSSYLAWYQQKPGQAPRLLMYDASIRATGIPDRFSGSGSGTDFTLTISRLEPEDFAVYYCQQYQKWPLTFGQGTKVEIK | 0.14 nM | 0.000428 s⁻¹ | 3.06e+06 M⁻¹ s⁻¹ | 0.019 nM | 0.000169 s⁻¹ | 8.99e+06 M⁻¹ s⁻¹
